Data set [1] has as its target zRET^ECD-zGDNF^mat.-zGFRα1a^D1-3 ternary complex (zRGα1a), 2:2:2 (zebrafish) (UniProt A8E7C6). Kind of data set: cryo-EM micrographs, particle-pair analysis and 2D class averages; non-crosslinked zRGα1a at 0.1 mg/ml on Quantifoil grids (dataset 3); complex with complex in linear arrays.
For data set [2], the target named is T1, zebrafish RET extracellular domain (zRET^ECD), A8E7C6.
T1 chain: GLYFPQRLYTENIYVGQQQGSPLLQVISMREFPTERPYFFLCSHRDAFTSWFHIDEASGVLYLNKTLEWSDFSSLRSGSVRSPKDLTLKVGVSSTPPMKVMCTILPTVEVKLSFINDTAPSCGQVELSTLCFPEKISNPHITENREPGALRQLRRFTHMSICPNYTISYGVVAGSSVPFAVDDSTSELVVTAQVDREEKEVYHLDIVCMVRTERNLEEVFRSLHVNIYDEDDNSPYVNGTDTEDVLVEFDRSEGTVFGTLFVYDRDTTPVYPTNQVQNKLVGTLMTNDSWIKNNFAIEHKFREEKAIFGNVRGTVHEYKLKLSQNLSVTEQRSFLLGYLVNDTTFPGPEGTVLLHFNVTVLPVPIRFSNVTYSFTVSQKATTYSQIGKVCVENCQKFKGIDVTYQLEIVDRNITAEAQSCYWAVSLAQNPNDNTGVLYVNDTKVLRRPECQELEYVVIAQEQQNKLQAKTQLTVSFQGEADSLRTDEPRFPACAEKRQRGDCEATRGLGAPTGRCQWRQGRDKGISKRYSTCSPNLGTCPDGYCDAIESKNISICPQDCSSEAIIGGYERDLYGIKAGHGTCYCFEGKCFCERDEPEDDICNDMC
The data set can be described thus: MST. Conditions: chain shown with the change.

Data set [3] deals with zebrafish RET extracellular domain (zRET^ECD) (zebrafish) (UniProt A8E7C6). Kind of data set: MST; zRET^ECD labelled with NHS-RED (50 nM fluorophore) held constant, unlabelled zGFRα1^D1-3-zGDNF^mat. (WT and mutants) in 1:1 serial dilution; 25°C; 20 mM HEPES pH 7.0, 150 mM NaCl, 1 mM CaCl2, 0.05 % Tween-20; quadratic fit, at least three repeats.
Data set [4] deals with the molecule itself. The data set can be described thus: cryo-EM structure; reconstituted zRGα1a complex crosslinked by GraFix (glutaraldehyde), 0.1 mg/ml; 20 mM Tris pH 7.0, 150 mM NaCl, 1 mM CaCl2; untilted and 30° tilted datasets.
In data set [5] the target is zRET^ECD with the CLD3-β2-β3 loop truncated to AAG (zRET^ECD_(P291-Q296:AAG)) (zebrafish) (UniProt A8E7C6). The data set can be described thus: MST; zRET^ECD labelled with NHS-RED (50 nM fluorophore) held constant, unlabelled zGFRα1^D1-3-zGDNF^mat. (WT and mutants) in 1:1 serial dilution; 25°C; 20 mM HEPES pH 7.0, 150 mM NaCl, 1 mM CaCl2, 0.05 % Tween-20; quadratic fit, at least three repeats.

For data set [6], the target named is T2, zGDNF^mat._(Y158A)-zGFRα1a^D1−3WT complex (zebrafish, UniProt Q98TT9 1-353; Q98TU0 135-235, Y158A).
T2 sequence 1: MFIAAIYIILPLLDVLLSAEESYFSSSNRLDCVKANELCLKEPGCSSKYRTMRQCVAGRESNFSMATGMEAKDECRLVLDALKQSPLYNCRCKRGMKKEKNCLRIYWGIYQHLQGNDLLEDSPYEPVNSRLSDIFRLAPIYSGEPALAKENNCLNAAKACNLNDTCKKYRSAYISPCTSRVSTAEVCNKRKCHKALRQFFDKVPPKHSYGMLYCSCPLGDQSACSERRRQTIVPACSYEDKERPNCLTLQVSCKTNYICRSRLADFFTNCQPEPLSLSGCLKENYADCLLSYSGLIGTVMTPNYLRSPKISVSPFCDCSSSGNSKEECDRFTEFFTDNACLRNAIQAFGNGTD
T2 sequence 2: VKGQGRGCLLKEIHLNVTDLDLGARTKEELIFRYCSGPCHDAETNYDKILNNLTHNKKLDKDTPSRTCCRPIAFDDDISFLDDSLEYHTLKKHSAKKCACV
The data set can be described thus: MST.

Values joined by “and” are separate entries in the source; they are usually repeats but may differ in a detail not shown here. Equal values may be shown once.

The stoichiometry N is the number of molecules, sites or subunits per partner or assembly. By Kd is commonly meant a measure of binding affinity in units of concentration. A lower Kd goes with higher affinity.

For “zRET^ECD-zGDNF^mat.-zGFRα1a^D1-3 ternary complex (zRGα1a), 2:2:2 (from UniProt A8E7C6 1-626; Q98TT9 1-353; Q98TU0 135-235)”, in data set [1], the stoichiometry N was 2 and 4.

B1: zGDNF^mat.-zGFRα1a^D1-3 complex (2:2), wild type, Q98TT9;Q98TU0 N323A (protein)
chain 1: MFIAAIYIILPLLDVLLSAEESYFSSSNRLDCVKANELCLKEPGCSSKYRTMRQCVAGRESNFSMATGMEAKDECRLVLDALKQSPLYNCRCKRGMKKEKNCLRIYWGIYQHLQGNDLLEDSPYEPVNSRLSDIFRLAPIYSGEPALAKENNCLNAAKACNLNDTCKKYRSAYISPCTSRVSTAEVCNKRKCHKALRQFFDKVPPKHSYGMLYCSCPLGDQSACSERRRQTIVPACSYEDKERPNCLTLQVSCKTNYICRSRLADFFTNCQPEPLSLSGCLKENYADCLLSYSGLIGTVMTPNYLRSPKISVSPFCDCSSSGASKEECDRFTEFFTDNACLRNAIQAFGNGTD
chain 2: VKGQGRGCLLKEIHLNVTDLDLGYRTKEELIFRYCSGPCHDAETNYDKILNNLTHNKKLDKDTPSRTCCRPIAFDDDISFLDDSLEYHTLKKHSAKKCACV
As to B1, the Kd in data set [2] (fluorescently labeled zRETECD, minimum of n = 3 repeats) was found to be 0.088 µM.

B2: zGDNFwt-zGFR1α1a^D1−3_(N323A,E326A,E327A) complex (complex)
chain 1: MFIAAIYIILPLLDVLLSAEESYFSSSNRLDCVKANELCLKEPGCSSKYRTMRQCVAGRESNFSMATGMEAKDECRLVLDALKQSPLYNCRCKRGMKKEKNCLRIYWGIYQHLQGNDLLEDSPYEPVNSRLSDIFRLAPIYSGEPALAKENNCLNAAKACNLNDTCKKYRSAYISPCTSRVSTAEVCNKRKCHKALRQFFDKVPPKHSYGMLYCSCPLGDQSACSERRRQTIVPACSYEDKERPNCLTLQVSCKTNYICRSRLADFFTNCQPEPLSLSGCLKENYADCLLSYSGLIGTVMTPNYLRSPKISVSPFCDCSSSGASKAACDRFTEFFTDNACLRNAIQAFGNGTD
chain 2: VKGQGRGCLLKEIHLNVTDLDLGYRTKEELIFRYCSGPCHDAETNYDKILNNLTHNKKLDKDTPSRTCCRPIAFDDDISFLDDSLEYHTLKKHSAKKCACV
Molecule B2 registered a Kd in data set [3] of 2.35 µM.

B3: zGDNF^mat.-zGFRα1a^D1-3 complex (2:2), wild type, Q98TT9;Q98TU0 L156A (protein)
chain 1: MFIAAIYIILPLLDVLLSAEESYFSSSNRLDCVKANELCLKEPGCSSKYRTMRQCVAGRESNFSMATGMEAKDECRLVLDALKQSPLYNCRCKRGMKKEKNCLRIYWGIYQHLQGNDLLEDSPYEPVNSRLSDIFRLAPIYSGEPALAKENNCLNAAKACNLNDTCKKYRSAYISPCTSRVSTAEVCNKRKCHKALRQFFDKVPPKHSYGMLYCSCPLGDQSACSERRRQTIVPACSYEDKERPNCLTLQVSCKTNYICRSRLADFFTNCQPEPLSLSGCLKENYADCLLSYSGLIGTVMTPNYLRSPKISVSPFCDCSSSGNSKEECDRFTEFFTDNACLRNAIQAFGNGTD
chain 2: VKGQGRGCLLKEIHLNVTDLDAGYRTKEELIFRYCSGPCHDAETNYDKILNNLTHNKKLDKDTPSRTCCRPIAFDDDISFLDDSLEYHTLKKHSAKKCACV
For B3, the dissociation constant (Kd) in data set [2] is 0.088 µM.

B4: zGDNF^mat._(Y158A)-zGFRα1a^D1−3WT complex (complex)
chain 1: MFIAAIYIILPLLDVLLSAEESYFSSSNRLDCVKANELCLKEPGCSSKYRTMRQCVAGRESNFSMATGMEAKDECRLVLDALKQSPLYNCRCKRGMKKEKNCLRIYWGIYQHLQGNDLLEDSPYEPVNSRLSDIFRLAPIYSGEPALAKENNCLNAAKACNLNDTCKKYRSAYISPCTSRVSTAEVCNKRKCHKALRQFFDKVPPKHSYGMLYCSCPLGDQSACSERRRQTIVPACSYEDKERPNCLTLQVSCKTNYICRSRLADFFTNCQPEPLSLSGCLKENYADCLLSYSGLIGTVMTPNYLRSPKISVSPFCDCSSSGNSKEECDRFTEFFTDNACLRNAIQAFGNGTD
chain 2: VKGQGRGCLLKEIHLNVTDLDLGARTKEELIFRYCSGPCHDAETNYDKILNNLTHNKKLDKDTPSRTCCRPIAFDDDISFLDDSLEYHTLKKHSAKKCACV
On to B4, for which the fold decrease in affinity against the wild type in data set [3] came to 2 fold.

B5: zebrafish GDNF, N-terminally truncated (zGDNF^mat.) (ligand, UniProt Q98TU0 135-235, looked up)
chain: VKGQGRGCLLKEIHLNVTDLDLGYRTKEELIFRYCSGPCHDAETNYDKILNNLTHNKKLDKDTPSRTCCRPIAFDDDISFLDDSLEYHTLKKHSAKKCACV
notes: One protomer; it stands as a dimer in the complexes; also called GDNF1; not shown: Protein A, C-terminal, cleaved
On to B5, for which the “stoichiometry N” value in data set [4] stood at 2.

B6: zGDNF^mat.WT-zGFR1α1a^D1−3_(E326A,E327A) complex (complex)
chain 1: MFIAAIYIILPLLDVLLSAEESYFSSSNRLDCVKANELCLKEPGCSSKYRTMRQCVAGRESNFSMATGMEAKDECRLVLDALKQSPLYNCRCKRGMKKEKNCLRIYWGIYQHLQGNDLLEDSPYEPVNSRLSDIFRLAPIYSGEPALAKENNCLNAAKACNLNDTCKKYRSAYISPCTSRVSTAEVCNKRKCHKALRQFFDKVPPKHSYGMLYCSCPLGDQSACSERRRQTIVPACSYEDKERPNCLTLQVSCKTNYICRSRLADFFTNCQPEPLSLSGCLKENYADCLLSYSGLIGTVMTPNYLRSPKISVSPFCDCSSSGNSKAACDRFTEFFTDNACLRNAIQAFGNGTD
chain 2: VKGQGRGCLLKEIHLNVTDLDLGYRTKEELIFRYCSGPCHDAETNYDKILNNLTHNKKLDKDTPSRTCCRPIAFDDDISFLDDSLEYHTLKKHSAKKCACV
For the molecule B6, the dissociation constant Kd in data set [3] is 0.17 µM. This lies in the sub-micromolar range.

B7: zGDNF^mat.-zGFRα1a^D1-3 complex (2:2), wild type (complex)
chain 1: MFIAAIYIILPLLDVLLSAEESYFSSSNRLDCVKANELCLKEPGCSSKYRTMRQCVAGRESNFSMATGMEAKDECRLVLDALKQSPLYNCRCKRGMKKEKNCLRIYWGIYQHLQGNDLLEDSPYEPVNSRLSDIFRLAPIYSGEPALAKENNCLNAAKACNLNDTCKKYRSAYISPCTSRVSTAEVCNKRKCHKALRQFFDKVPPKHSYGMLYCSCPLGDQSACSERRRQTIVPACSYEDKERPNCLTLQVSCKTNYICRSRLADFFTNCQPEPLSLSGCLKENYADCLLSYSGLIGTVMTPNYLRSPKISVSPFCDCSSSGNSKEECDRFTEFFTDNACLRNAIQAFGNGTD
chain 2: VKGQGRGCLLKEIHLNVTDLDLGYRTKEELIFRYCSGPCHDAETNYDKILNNLTHNKKLDKDTPSRTCCRPIAFDDDISFLDDSLEYHTLKKHSAKKCACV
On to B7, for which the Kd in data set [3] is 0.09 µM; in data set [5], 0.018 µM.

B8: zebrafish RET extracellular domain (zRET^ECD) (domain or fragment)
chain: GLYFPQRLYTENIYVGQQQGSPLLQVISMREFPTERPYFFLCSHRDAFTSWFHIDEASGVLYLNKTLEWSDFSSLRSGSVRSPKDLTLKVGVSSTPPMKVMCTILPTVEVKLSFINDTAPSCGQVELSTLCFPEKISNPHITENREPGALRQLRRFTHMSICPNYTISYGVVAGSSVPFAVDDSTSELVVTAQVDREEKEVYHLDIVCMVRTERNLEEVFRSLHVNIYDEDDNSPYVNGTDTEDVLVEFDRSEGTVFGTLFVYDRDTTPVYPTNQVQNKLVGTLMTNDSWIKNNFAIEHKFREEKAIFGNVRGTVHEYKLKLSQNLSVTEQRSFLLGYLVNDTTFPGPEGTVLLHFNVTVLPVPIRFSNVTYSFTVSQKATTYSQIGKVCVENCQKFKGIDVTYQLEIVDRNITAEAQSCYWAVSLAQNPNDNTGVLYVNDTKVLRRPECQELEYVVIAQEQQNKLQAKTQLTVSFQGEADSLRTDEPRFPACAEKRQRGDCEATRGLGAPTGRCQWRQGRDKGISKRYSTCSPNLGTCPDGYCDAIESKNISICPQDCSSEAIIGGYERDLYGIKAGHGTCYCFEGKCFCERDEPEDDICNDMC
modifications: NHS-RED 2nd generation dye (amine reactive) in the MST only
As to B8, the dissociation constant (Kd) in data set [6] amounted to 0.173 µM.

Values taken from publication PMC8266384, “A two-site flexible clamp mechanism for RET-GDNF-GFRα1 assembly reveals both conformational adaptation and strict geometric spacing” (Structure(London, England:1993), 2021).
